This passage reports koff, kon and Kd results from publication PMC10764318.

Assay in all cases: BLI
The target in assay [1] is WRAIR-5001 (rhesus macaque).
Assay [2] deals with WRAIR-5004 (rhesus macaque).
Assay [3] concerns the target WRAIR-5005 (rhesus macaque).
For assay [4], the target named is WRAIR-5011 (rhesus macaque).
Assay [5] deals with WRAIR-5001 (rhesus macaque | human).

pKd: −log10 of the molar value.

Chain of WRAIR-5005 (rhesus macaque) (VH, as listed by the source, chain 1 of 2): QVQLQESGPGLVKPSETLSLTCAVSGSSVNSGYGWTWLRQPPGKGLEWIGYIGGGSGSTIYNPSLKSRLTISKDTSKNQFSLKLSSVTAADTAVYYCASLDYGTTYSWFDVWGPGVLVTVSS
Chain of WRAIR-5005 (rhesus macaque) (VL, as listed by the source, chain 2 of 2): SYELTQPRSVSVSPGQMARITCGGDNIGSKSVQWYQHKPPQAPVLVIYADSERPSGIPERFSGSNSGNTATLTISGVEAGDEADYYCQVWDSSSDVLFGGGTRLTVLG
Chain of WRAIR-5011 (rhesus macaque) (VH, as listed by the source, chain 1 of 2): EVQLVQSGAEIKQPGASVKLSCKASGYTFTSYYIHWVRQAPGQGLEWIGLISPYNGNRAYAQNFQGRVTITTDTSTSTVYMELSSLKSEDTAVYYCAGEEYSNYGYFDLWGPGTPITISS
Chain of WRAIR-5011 (rhesus macaque) (VL, as listed by the source, chain 2 of 2): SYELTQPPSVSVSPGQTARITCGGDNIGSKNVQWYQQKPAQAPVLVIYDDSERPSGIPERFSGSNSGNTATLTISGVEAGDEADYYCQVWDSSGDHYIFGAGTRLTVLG
Chain of WRAIR-5004 (rhesus macaque) (VH, as listed by the source, chain 1 of 2): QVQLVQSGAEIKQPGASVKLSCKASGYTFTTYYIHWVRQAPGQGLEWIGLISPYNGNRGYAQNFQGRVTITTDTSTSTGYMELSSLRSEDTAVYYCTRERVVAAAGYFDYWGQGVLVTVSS
Chain of WRAIR-5004 (rhesus macaque) (VL, as listed by the source, chain 2 of 2): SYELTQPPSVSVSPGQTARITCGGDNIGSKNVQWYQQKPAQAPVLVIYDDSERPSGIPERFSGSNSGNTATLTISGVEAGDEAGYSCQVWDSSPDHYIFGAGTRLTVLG
Chain of WRAIR-5001 (rhesus macaque) (VH, as listed by the source, chain 1 of 2): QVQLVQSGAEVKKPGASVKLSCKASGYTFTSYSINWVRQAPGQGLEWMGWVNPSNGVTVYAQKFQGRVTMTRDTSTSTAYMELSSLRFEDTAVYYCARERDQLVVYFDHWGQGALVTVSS
Chain of WRAIR-5001 (rhesus macaque) (VL, as listed by the source, chain 2 of 2): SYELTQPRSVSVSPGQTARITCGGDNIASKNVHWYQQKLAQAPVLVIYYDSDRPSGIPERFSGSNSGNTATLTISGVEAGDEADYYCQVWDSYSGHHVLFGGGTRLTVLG

Take SARS-CoV-1 RBD (domain or fragment): the koff in assay [1] was 0.00061 s⁻¹; in assay [2] it was 0.00458 s⁻¹; in assay [3], 0.00318 s⁻¹; in assay [4], 0.0014 s⁻¹. In addition, the association rate constant (kon) in assay [1] is 177000 M⁻¹ s⁻¹; in assay [2], 158000 M⁻¹ s⁻¹; in assay [3], 20700 M⁻¹ s⁻¹; in assay [4] it was 110000 M⁻¹ s⁻¹. For the same substance, the pKd in assay [2] was 7.54; in assay [3] it was 6.81; in assay [4] it was 7.90; in assay [5] it was 8.46.
